Measured values from IntAct's records for PubMed 17012248.

B1: Sialic acid-binding Ig-like lectin 14 (Homo sapiens), Q08ET2 (parent)
chain: MLPLLLLPLLWGGSLQEKPVYELQVQKSVTVQEGLCVLVPCSFSYPWRSWYSSPPLYVYWFRDGEIPYYAEVVATNNPDRRVKPETQGRFRLLGDVQKKNCSLSIGDARMEDTGSYFFRVERGRDVKYSYQQNKLNLEVTALIEKPDIHFLEPLESGRPTRLSCSLPGSCEAGPPLTFSWTGNALSPLDPETTRSSELTLTPRPEDHGTNLTCQVKRQGAQVTTERTVQLNVSYAPQNLAISIFFRNGTGTALRILSNGMSVPIQEGQSLFLACTVDSNPPASLSWFREGKALNPSQTSMSGTLELPNIGAREGGEFTCRVQHPLGSQHLSFILSVQRSSSSCICVTEKQQGSWPLVLTLIRGALMGAGFLLTYGLTWIYYTRCGGPQQSRAERPG

Variants of: B1
Conditions: with tyobp_human TYROBP

| effect of a mutation on the interaction | Variant |
| --- | --- |
| decreasing interaction | R362A |
